We go through two molecules from US20040247614A1 (J DAVID GLADSTONE INSTITUTES, published 2004).

In the test the target is T1, GST alone (UniProt P08515 1-218 = GST).
T1 construct: Control in the GST pulldown
The test can be described thus: GST pulldown, immunoblot with anti-Tat mAb.

T1 sequence (P08515 whole entry): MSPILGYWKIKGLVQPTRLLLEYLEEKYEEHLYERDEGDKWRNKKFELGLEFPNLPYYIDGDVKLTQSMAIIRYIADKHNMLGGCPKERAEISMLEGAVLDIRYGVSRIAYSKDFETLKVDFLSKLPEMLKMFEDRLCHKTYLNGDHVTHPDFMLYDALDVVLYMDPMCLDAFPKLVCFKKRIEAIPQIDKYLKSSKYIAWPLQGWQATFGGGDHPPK

B1: synthetic unacetylated Tat (other)
chain: MEPVDPRLEPWKHPGSQPKTACTTCYCKKCCFHCQVCFTTKALGISYGRKKRRQRRRPPQGSQTHQVSLSKQ
notes: range 1-72; also called nonacetylated Tat
As to B1, the binding result is “no binding”.

B2: synthetic Tat protein containing a single acetylated lysine at position 50 (AcTat) (other)
chain: MEPVDPRLEPWKHPGSQPKTACTTCYCKKCCFHCQVCFTTKALGISYGRKKRRQRRRPPQGSQTHQVSLSKQ
modifications: acetylated lysine at position 50 (K50)
notes: range 1-72; also called acetylated Tat; K50-acetylated Tat
As for B2, the binding result is reported as “no binding”.
